Laboratory results published in publication PMC10200341 (Bioconjugate chemistry, 2022).
No end group written: not given here. FAM = fluorescein

Molecular target: Nb6E (alpaca)
Assay: in-gel fluorescence of the crosslinked product

B1: FAM-1(NO2) (peptide)
chain: {FAM}-QADQCAAELARQIS
modifications: not fully specified (residue 5)
- Kd: 206 nM
